{"source": "paper PMC3220887", "about": "(Structure (London, England : 1993), 2011)", "proteins": {"B1": {"name": "D48V-GLTP (human glycolipid transfer protein, D48V mutant) (natural protein, UniProt Q9NZD2 1-209, looked up)", "chain": "MALLAEHLLKPLPADKQIETGPFLEAVSHLPPFFDCLGSPVFTPIKAVISGNITKIKAVYDTNPAKFRTLQNILEVEKEMYGAEWPKVGATLALMWLKRGLRFIQVFLQSICDGERDENHPNLIRVNATKAYEMALKKYHGWIVQKIFQAALYAAPYKSDFLKALSKGQNVTEEECLEKIRLFLVNYTATIDVIYEMYTQMNAELNYKV"}}, "biological_target": "the molecule itself", "test": "dynamic light scattering"}
{"protein": "B1", "values": [{"measurement": "stoichiometry N", "result": 2}]}
